We go through 3 molecules from patent publication US20060029667A1 (RUTGERS THE STATE UNIVERSITY OF NEW JERSEY, published 2006).

Non-standard residues stand in square brackets, D forms with d. No end group written: not given here. *: point of attachment. Biotin = O=C1N[C@H]2[C@H](CS[C@H]2CCCCC(=O)*)N1

The target in assay [1] is high affinity formyl methionine receptor (fMLF receptor) on differentiated HL-60 cells (human) (UniProt P21462). As to the kind of experiment: cell-based or functional assay.
Chain of high affinity formyl methionine receptor (fMLF receptor) on differentiated HL-60 cells (human) (P21462 whole entry): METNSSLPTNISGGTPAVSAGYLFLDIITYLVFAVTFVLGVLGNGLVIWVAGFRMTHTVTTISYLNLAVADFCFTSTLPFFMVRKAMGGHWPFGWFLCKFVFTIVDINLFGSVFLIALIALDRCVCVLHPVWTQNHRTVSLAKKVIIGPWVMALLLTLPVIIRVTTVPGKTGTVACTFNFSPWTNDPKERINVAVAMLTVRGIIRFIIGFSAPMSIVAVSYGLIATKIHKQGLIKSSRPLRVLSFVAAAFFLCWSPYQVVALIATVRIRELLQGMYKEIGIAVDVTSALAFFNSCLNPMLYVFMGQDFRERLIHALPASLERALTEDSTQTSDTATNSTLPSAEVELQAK
The target is the same in assay [2]. The assay can be described thus: radioligand binding to DMSO-differentiated HL-60 cells.
In assay [3] the target is T1, human sodium dependent multivitamin transporter, hSMVT (human, UniProt Q9Y289 1-635).
T1 sequence (looked up): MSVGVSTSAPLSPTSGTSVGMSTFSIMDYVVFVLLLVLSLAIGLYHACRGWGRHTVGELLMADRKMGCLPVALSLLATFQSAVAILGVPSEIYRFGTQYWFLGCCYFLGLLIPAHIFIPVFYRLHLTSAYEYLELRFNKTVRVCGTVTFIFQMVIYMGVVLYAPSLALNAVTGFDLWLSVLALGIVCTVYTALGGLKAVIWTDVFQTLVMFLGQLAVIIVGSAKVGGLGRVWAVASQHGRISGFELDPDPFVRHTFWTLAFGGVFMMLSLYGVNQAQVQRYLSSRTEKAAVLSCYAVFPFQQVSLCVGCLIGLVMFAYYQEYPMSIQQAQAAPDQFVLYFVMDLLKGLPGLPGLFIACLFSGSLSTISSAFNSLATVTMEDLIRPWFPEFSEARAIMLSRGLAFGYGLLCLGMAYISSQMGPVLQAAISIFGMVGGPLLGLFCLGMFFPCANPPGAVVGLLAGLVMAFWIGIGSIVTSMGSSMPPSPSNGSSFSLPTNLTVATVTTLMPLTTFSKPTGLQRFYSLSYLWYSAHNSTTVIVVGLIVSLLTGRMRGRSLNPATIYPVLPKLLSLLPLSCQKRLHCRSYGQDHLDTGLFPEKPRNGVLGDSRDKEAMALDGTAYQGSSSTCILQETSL
The assay can be described thus: cell-based or functional assay.

Take “N-formyl-methionine-leucine-phenylalanine (fMLF) peptide”: the Cell Activation EC50 (calcium release from intracellular stores, differentiated HL-60 cells) in assay [1] was 4.7 nM.

Consider fML[3H]F (peptide), for which the specific binding as percent of total binding in assay [2] worked out at 75%.

Consider [dK](Biotin)[dR][dR][dR][dQ][dR][dR][dK][dK][dR]-NH2 (not fully specified (N-terminus)) [RI-K(biotin)-Tat9], for which the “uptake in CHO/hSMVT cells relative to RI-K-Tat9 (at 10 µM)” value in assay [3] is approximately 500 fold.
